We go through eleven compounds from patent US20240376151A1, “STAPLED PEPTIDES AND METHODS THEREOF” (FOG PHARMACEUTICALS, INC., priority 2022, published 2024).

The target of the test is T1, beta-catenin (Homo sapiens, UniProt P35222).
T1 construct: made in house; host or cells: E. coli BL21 (DE3) pLysS
T1 sequence (P35222 134-665): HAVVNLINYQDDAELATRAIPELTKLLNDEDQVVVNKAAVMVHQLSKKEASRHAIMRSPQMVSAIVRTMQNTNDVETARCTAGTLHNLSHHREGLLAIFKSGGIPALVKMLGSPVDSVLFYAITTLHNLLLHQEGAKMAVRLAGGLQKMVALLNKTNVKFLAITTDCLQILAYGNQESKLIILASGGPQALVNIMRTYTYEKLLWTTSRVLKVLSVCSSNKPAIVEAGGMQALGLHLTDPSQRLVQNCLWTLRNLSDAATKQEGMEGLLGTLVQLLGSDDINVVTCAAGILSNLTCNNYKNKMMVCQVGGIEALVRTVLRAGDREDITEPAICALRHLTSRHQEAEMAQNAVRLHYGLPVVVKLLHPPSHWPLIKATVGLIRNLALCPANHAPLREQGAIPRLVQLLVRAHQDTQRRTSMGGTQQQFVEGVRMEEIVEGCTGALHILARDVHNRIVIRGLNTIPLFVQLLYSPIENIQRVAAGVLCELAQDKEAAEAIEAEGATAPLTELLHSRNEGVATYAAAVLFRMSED
The test can be described thus: Phage Library Screening with NGS, beta-catenin. It is filed as binding. The following applies: for Target Concentration 10 (phage screen NGS readout): beta-catenin target concentration 10; for Target Concentration 10 (phage screen NGS readout) / Target Concentration 30 (phage screen NGS readout) / Target Concentration 100 (phage screen NGS readout) / Target Concentration 300 (phage screen NGS readout): no competitor; for Target Concentration 30 (phage screen NGS readout): beta-catenin target concentration 30; for Target Concentration 100 (phage screen NGS readout): beta-catenin target concentration 100; for Target Concentration 300 (phage screen NGS readout): beta-catenin target concentration 300; for Target Concentration 1000 (phage screen NGS readout): beta-catenin target concentration 1000.

Take DPAVEDCVLAAHVCAWF: the “Target Concentration 10 (phage screen NGS readout)” value is reported as 0, the “Target Concentration 30 (phage screen NGS readout)” value amounted to 2, the “Target Concentration 100 (phage screen NGS readout)” value was 47 and the “Target Concentration 300 (phage screen NGS readout)” value is 39. Further, the “Target Concentration BLANK (phage screen NGS readout)” value (shortened to “Target Concentration BLANK”) (first column) was 0. The “Target Concentration BLANK” value (fourth column) amounted to 0. Also, for the setting “second column”, the “Target Concentration BLANK” value stood at 0. In addition, the “Target Concentration BLANK” value (third column) was 0. For the same compound, for the setting “first 1000 column”, the “Target Concentration 1000 (phage screen NGS readout)” value came out at 49. Besides, the “Target Concentration 1000 (phage screen NGS readout)” value (second 1000 column) was 73.
With DPAAQRCTWAAIHCELI, the “Target Concentration 10 (phage screen NGS readout)” value is listed as 0, the “Target Concentration 30 (phage screen NGS readout)” value came out at 0, the “Target Concentration 100 (phage screen NGS readout)” value came to 7 and the “Target Concentration 300 (phage screen NGS readout)” value amounted to 39. In addition, the “Target Concentration BLANK” value (first column) was found to be 0. Further, under “fourth column”, the “Target Concentration BLANK” value is 0. Moreover, the “Target Concentration BLANK” value (second column) was found to be 0. For the same compound, the “Target Concentration BLANK” value (third column) is recorded as 2. For the same compound, the “Target Concentration 1000 (phage screen NGS readout)” value (first 1000 column) is 25. Also, where the note is “second 1000 column”, the “Target Concentration 1000 (phage screen NGS readout)” value came out at 93.
For DPAEIICYEAAFLCQYQ, the “Target Concentration 10 (phage screen NGS readout)” value is on record as 0, the “Target Concentration 30 (phage screen NGS readout)” value worked out at 0, the “Target Concentration 100 (phage screen NGS readout)” value was found to be 0 and the “Target Concentration 300 (phage screen NGS readout)” value is listed as 15. In addition, the “Target Concentration BLANK” value (first column) was found to be 0. Also, the “Target Concentration BLANK” value (fourth column) is listed as 0. For the same compound, the “Target Concentration BLANK” value (second column) worked out at 0. Besides, the “Target Concentration BLANK” value (third column) was determined as 0. For the same compound, the “Target Concentration 1000 (phage screen NGS readout)” value (first 1000 column) was determined as 38. In addition, the “Target Concentration 1000 (phage screen NGS readout)” value (second 1000 column) is given as 26.
In the case of DPAILNCHMAAWDCNFY, the “Target Concentration 10 (phage screen NGS readout)” value is reported as 0, the “Target Concentration 30 (phage screen NGS readout)” value is 7, the “Target Concentration 100 (phage screen NGS readout)” value turned out to be 14 and the “Target Concentration 300 (phage screen NGS readout)” value is recorded as 57. The “Target Concentration BLANK” value (first column) amounted to 0. For the same compound, the “Target Concentration BLANK” value (fourth column) was determined as 0. Besides, the “Target Concentration BLANK” value (second column) is 0. For the same compound, the “Target Concentration BLANK” value (third column) came to 1. The “Target Concentration 1000 (phage screen NGS readout)” value (first 1000 column) stood at 37. For the same compound, the “Target Concentration 1000 (phage screen NGS readout)” value (second 1000 column) came out at 59.
Take DPAILECYEAAFECQYM: the “Target Concentration 10 (phage screen NGS readout)” value was 7, the “Target Concentration 30 (phage screen NGS readout)” value is recorded as 8, the “Target Concentration 100 (phage screen NGS readout)” value came out at 20 and the “Target Concentration 300 (phage screen NGS readout)” value was determined as 49. For the same compound, the “Target Concentration BLANK” value (first column) worked out at 0. Further, the “Target Concentration BLANK” value (fourth column) was 0. Also, the “Target Concentration BLANK” value (second column) worked out at 0. The “Target Concentration BLANK” value (third column) was found to be 0. The “Target Concentration 1000 (phage screen NGS readout)” value (first 1000 column) is 41. In addition, under “second 1000 column”, the “Target Concentration 1000 (phage screen NGS readout)” value was found to be 39.
With DPAEWDCMHAALICEVH, the “Target Concentration 10 (phage screen NGS readout)” value is 0, the “Target Concentration 30 (phage screen NGS readout)” value is reported as 10, the “Target Concentration 100 (phage screen NGS readout)” value is recorded as 55 and the “Target Concentration 300 (phage screen NGS readout)” value worked out at 54. Further, where the note is “first column”, the “Target Concentration BLANK” value is 0. Where the note is “fourth column”, the “Target Concentration BLANK” value was 0. For the setting “second column”, the “Target Concentration BLANK” value is 0. The “Target Concentration BLANK” value (third column) was 0. The “Target Concentration 1000 (phage screen NGS readout)” value (first 1000 column) came out at 67. Moreover, the “Target Concentration 1000 (phage screen NGS readout)” value (second 1000 column) is 89.
In the case of DPAVLECHIAAWECNHT, the “Target Concentration 10 (phage screen NGS readout)” value is 0, the “Target Concentration 30 (phage screen NGS readout)” value was 1, the “Target Concentration 100 (phage screen NGS readout)” value is recorded as 22 and the “Target Concentration 300 (phage screen NGS readout)” value was found to be 67. In addition, the “Target Concentration BLANK” value (first column) is listed as 0. Moreover, the “Target Concentration BLANK” value (fourth column) is 0. In addition, the “Target Concentration BLANK” value (second column) is given as 0. Further, the “Target Concentration BLANK” value (third column) turned out to be 0. Also, the “Target Concentration 1000 (phage screen NGS readout)” value (first 1000 column) is listed as 140. For the setting “second 1000 column”, the “Target Concentration 1000 (phage screen NGS readout)” value is recorded as 55.
On to DPALWNCDHAALLCDHQ, for which the “Target Concentration 10 (phage screen NGS readout)” value is recorded as 0, the “Target Concentration 30 (phage screen NGS readout)” value was found to be 0, the “Target Concentration 100 (phage screen NGS readout)” value turned out to be 10 and the “Target Concentration 300 (phage screen NGS readout)” value is recorded as 8. Besides, under “first column”, the “Target Concentration BLANK” value was determined as 0. Where the note is “fourth column”, the “Target Concentration BLANK” value came out at 0. Moreover, the “Target Concentration BLANK” value (second column) is listed as 0. Moreover, the “Target Concentration BLANK” value (third column) is listed as 0. Moreover, the “Target Concentration 1000 (phage screen NGS readout)” value (first 1000 column) turned out to be 13. The “Target Concentration 1000 (phage screen NGS readout)” value (second 1000 column) was found to be 10.
For the compound DPAWSDCIWAAEHCQLI, the “Target Concentration 10 (phage screen NGS readout)” value came out at 0, the “Target Concentration 30 (phage screen NGS readout)” value was 3, the “Target Concentration 100 (phage screen NGS readout)” value amounted to 5 and the “Target Concentration 300 (phage screen NGS readout)” value came to 127. In addition, the “Target Concentration BLANK” value (first column) is 0. Further, where the note is “fourth column”, the “Target Concentration BLANK” value is reported as 0. Also, the “Target Concentration BLANK” value (second column) turned out to be 1. In addition, the “Target Concentration BLANK” value (third column) stood at 0. For the same compound, the “Target Concentration 1000 (phage screen NGS readout)” value (first 1000 column) was determined as 109. Moreover, the “Target Concentration 1000 (phage screen NGS readout)” value (second 1000 column) is 85.
As to `CC[C@H](C)[C@H](NC(=O)[C@H](C)NC(=O)[C@H](C)NC(=O)[C@H](Cc1c[nH]c2ccccc12)NC(=O)[C@H](CCC(=O)O)NC(=O)[C@H](CS)NC(=O)[C@H](CC(C)C)NC(=O)[C@H](CCC(=O)O)NC(=O)[C@H](CO)NC(=O)[C@H](C)NC(=O)[C@@H]1CCCN1C(=O)[C@H](CC(=O)O)NC(C)=O)C(=O)N[C@@H](Cc1c[nH]cn1)C(=O)N[C@@H](CS)C(=O)N[C@@H](CC(=O)O)C(=O)N[C@@H](CC(C)C)C(=O)N[C@H](C(N)=O)C(C)C`, the “Target Concentration 10 (phage screen NGS readout)” value amounted to 19, the “Target Concentration 30 (phage screen NGS readout)” value worked out at 41, the “Target Concentration 100 (phage screen NGS readout)” value is 163 and the “Target Concentration 300 (phage screen NGS readout)” value was found to be 495. Besides, for the setting “first column”, the “Target Concentration BLANK” value was 1. Besides, where the note is “fourth column”, the “Target Concentration BLANK” value was 1. For the same compound, the “Target Concentration BLANK” value (second column) is 2. Besides, the “Target Concentration BLANK” value (third column) amounted to 3. Also, the “Target Concentration 1000 (phage screen NGS readout)” value (first 1000 column) was found to be 605. For the same compound, the “Target Concentration 1000 (phage screen NGS readout)” value (second 1000 column) came out at 424.
For DPAILDCQLAAMDCSTW, the “Target Concentration 10 (phage screen NGS readout)” value came to 0, the “Target Concentration 30 (phage screen NGS readout)” value is listed as 6, the “Target Concentration 100 (phage screen NGS readout)” value was determined as 22 and the “Target Concentration 300 (phage screen NGS readout)” value is on record as 21. For the same compound, where the note is “first column”, the “Target Concentration BLANK” value is 0. Besides, the “Target Concentration BLANK” value (fourth column) stood at 0. For the setting “second column”, the “Target Concentration BLANK” value is 0. Moreover, the “Target Concentration BLANK” value (third column) is on record as 0. For the same compound, for the setting “first 1000 column”, the “Target Concentration 1000 (phage screen NGS readout)” value amounted to 25. Also, the “Target Concentration 1000 (phage screen NGS readout)” value (second 1000 column) came out at 55.
